# From publication PMC9695642, “Conservation of Importin α Function in Apicomplexans: Ivermectin and GW5074 Target Plasmodium falciparum Importin α and Inhibit Parasite Growth in Culture” (International Journal of Molecular Sciences, 2022)
# Experiments:
# [1] = target: His-tagged Toxoplasma gondii importin α (Toxoplasma gondii); assay: AlphaScreen or HTRF; His-tagged IMPαs (30 nM) titrated with increasing concentrations of biotinylated GST-MmIMPβ1 (legend: 5 nM)
# [2] = target: His-tagged Mus musculus importin α (Mus musculus) (UniProt P52293); assay: as above
# [3] = target: His-tagged TGS1-NLS-GFP (NLS of P. falciparum trimethylguanosine synthase fused to GFP) (Plasmodium falciparum); assay: AlphaScreen or HTRF; biotinylated IMPαs titrated against His-tagged NLS-GFPs (30 nM); apparent dissociation constant
# [4] = target: His-tagged GCN5-NLS-GFP (NLS of T. gondii histone acetyltransferase GCN5 fused to GFP) (Toxoplasma gondii); assay: as above
substance,measurement,setting,value
biotinylated GST-MmIMPβ1 (Mus musculus importin β1) (from UniProt P70168 1-876),Kd,[1],1.2 nM
biotinylated GST-MmIMPβ1 (Mus musculus importin β1) (from UniProt P70168 1-876) (natural protein),Kd,[2],2.5 nM
mammalian IMPα/β1 heterodimer from M. musculus (from UniProt P52293 1-529; P70168 1-876) (complex),Kd,[3],2.5 nM
same,Kd,[4],3.2 nM
"Toxoplasma gondii importin α, biotinylated GST fusion protein (natural protein)",Kd,[3],1.9 nM
same,Kd,[4],5 nM
